{
  "source": "patent US10378034B2",
  "about": "“Use of a N-acetylneuraminate lyase derived from the bacterium Aliivibrio salmonicida in the production of neuraminic acid and derivatives thereof” (Universitetet i Tromsø-Norges Arktiske Universitet, priority 2014, dated 2019)",
  "type_in_all_cases": "biochemical",
  "key": {"[1]": {"assay": "Comparative specific activity, cleavage reaction (TBA assay)", "experimental": "(§1) The cleavage activity was determined by incubating 50 μl of a reaction mixture containing 5 mM Neu5Ac, 124 mM HEPES pH 8.0 and different concentrations of enzyme depending on assay type at selected temperatures for the required amount of time. Termination of the reactions and subsequent steps of the assay are as described above. The decrease in absorbance is correlated to the increase in cleavage activity.\nStandard reaction mixtures were incubated at room temperature for 1 h before being subjected to the TBA assay."}, "[2]": {"assay": "Temperature shift experiment on production yield of Neu5Ac", "conditions": "shifting reaction temperature from 23° C. to 4° C.; 50 mM pyruvate, 5 mM ManNAc", "experimental": "The effect of substrate ratio on the conversion yield of Neu5Ac was studied by varying the pyruvate concentration while the concentration of ManNAc was kept constant. The pyruvate concentration ranged from 2.5 to 70 mM, whereas the ManNAc concentration was 5 mM, resulting in a pyruvate:ManNAc ratio ranging from 0.5 to 14. The condensation reaction mixture containing different ratios of pyruvate and ManNAc along with 124 mM HEPES buffer pH 8.0 and enzyme was incubated at room temperature for 7.5 h. […] Thus, a temperature shift experiment was carried out to see how much the Neu5Ac production could be increased by altering the equilibrium once it had been achieved. For a temperature shift experiment, the reaction mixture (enzyme, 50 mM pyruvate, 5 mM ManNAc, 124 mM HEPES buffer pH 8.0) was incubated at room temperature for 7.5 h and after reaching equilibrium it was shifted to 4° C. and incubated for 15 h. As a control, one reaction was kept at room temperature and another at 4° C. for all the time. The difference in yield between the temperature shifted and non-shifted reactions were calculated. The standard TBA assay was used to assess the activity."}, "[3]": {"assay": "TBA assay, cleavage activity: pH and temperature profiles", "experimental": "as §1\npH profiles were determined by assaying the enzyme in triplicate for both condensation and cleavage directions at pH values ranging from 5.5 to 11.0 with 0.5 pH unit intervals. Sodium phosphate buffer was used from pH 5.5 to 7.5, HEPES buffer from pH 6.5 to 8.0, Tris-HCl buffer from pH 7.5 to 9.0 and Glycine buffer from pH 9.0 to 11.0. The reaction mixture was incubated at room temperature for 1 h before being subjected to the TBA assay. Temperature profiles were determined for both directions by assaying the enzyme in triplicate from 4 to 80° C. in HEPES buffer pH 8.0. The reaction mixture was incubated for 30 min at selected temperatures and the reaction was terminated by adding 2 μl of concentrated H2SO4 and then subjected to the TBA assay."}, "[4]": {"assay": "TBA assay, condensation activity: pH and temperature profiles", "experimental": "Both the condensation and cleavage activities of NAL were assessed using the modified thiobarbituric acid (TBA) assay developed by Aminoff (1961) and Warren (1959). The condensation activity was determined by incubating 50 μl of a reaction mixture containing 15 mM sodium pyruvate, 15 mM ManNAc, 124 mM HEPES pH 8.0 and different concentrations of enzyme depending on assay type at selected temperatures for the required amount of time. The reaction was terminated by adding 137 μl 2.5 mg/ml sodium periodate in 57 mM H2SO4, followed by incubation at 37° C. for 15 min with shaking at 1350 rpm. Sodium arsenite (50 μl, 25 mg/ml sodium arsenite in 0.5 M HCl) was added resulting in brown color. The tubes were shaken manually until the brown color disappeared. 2-thiobarbituric acid solution (100 μl, 71 mg/ml adjusted to pH 9.0) was subsequently added, and the tubes were incubated in boiling water for 7.5 min. […] The organic phase containing the red chromophore (200 μl) was used for measurement of absorbance at 549 nm in a spectrophotometer (SpectraMax M2e, Molecular Devices). […]\npH profiles were determined by assaying the enzyme in triplicate for both condensation and cleavage directions at pH values ranging from 5.5 to 11.0 with 0.5 pH unit intervals. […] Temperature profiles were determined for both directions by assaying the enzyme in triplicate from 4 to 80° C. in HEPES buffer pH 8.0. […]"}, "[5]": {"conditions": "at 10° C., relative to highest value"}},
  "data": [
    {"molecule": "AsNAL: N-acetylneuraminate lyase isolated from the psychrophilic bacterium Aliivibrio salmonicida LFI1238, recombinantly expressed in E. coli (protein, listed as Aliivibrio salmonicida) MKKLTGLIAAPHTPFDSSSNVNFEEIDKIAKHLINDGVKGIYVCGTTGEGIHCSVEERKAIAERWVSACNHKLDIIVHTGALSIVDTLELTRHADTLDILATSAIGPCFFKPGSVSDLVEYCATIAAAAPSKGFYYYHSGMSGVNLNMEEFLIQADKRIPNLSGLKFNSGDLYEYQRCLRACDGKFDVPFGVDEFLPGALAVGAKSAVGSTYNYAAPHFNSIIEAFNKGDHDAVFNKMTNVIELIRVLVEFGGVAAGKIAMELHDINAGDPRLPLMPLSAEQKLTVVEKMRAANFLK", "values": [
      {"measurement": "specific activity of the cleavage reaction, higher than EcNAL", "setting": "[1]; 4° C.", "value": 25, "unit": "%"},
      {"measurement": "specific activity of the cleavage reaction, higher than EcNAL", "setting": "[1]; 23° C.", "value": 35, "unit": "%"},
      {"measurement": "specific activity of the cleavage reaction, higher than EcNAL", "setting": "[1]; 37° C.", "value": 35, "unit": "%"},
      {"measurement": "increase in yield of Neu5Ac", "setting": "[2]", "value": 30, "unit": "%"},
      {"measurement": "optimal temperature, cleavage reaction", "setting": "[3]; HEPES buffer pH 8.0, 30 min", "value": 65, "unit": "°C"},
      {"measurement": "cleavage activity retained", "setting": "[3]; [5]", "value": 30, "unit": "%"},
      {"measurement": "optimal temperature, condensation reaction", "setting": "[4]; HEPES buffer pH 8.0, 30 min", "value": 20, "unit": "°C"},
      {"measurement": "condensation activity retained", "setting": "[4]; [5]", "value": 75, "unit": "%"}
    ]}
  ]
}
